Test results: US20110135636A1 (SYMPHOGEN A S, published 2011)

Experiments:
[1] = molecular target: T1, recombinant human EGFR extracellular domain with 6xHis (human, UniProt P00533 25-645); test: SPR competition, competitor 1042
T1 construct: In-house produced; also called 6xHis EGFR ECD; soluble human EGFR ECD; not shown: 6xHis tag
Protocol: SPR analysis was performed on a Biacore 3000 machine containing four flow cells. A CM5 Biacore chip was conjugated with 10,000 Resonance units (Ru) polyclonal anti-His antibody to flow cells 1-4 according to the manufacturer's instructions. […] Immediately after antigen injection the maximal binding of the Anti-EGFR mAb without competition was established in each flow cell during a reference run. Briefly 5 μl antibody at a concentration of 40 μg/ml was injected over all flow cells with captured EGFR followed by stripping of the antibody/antigen complex with a low pH acid wash (10 sec. contact time with 10 mM Glycine-HCl, pH2). After the determination of Anti-EGFR antibody maximal binding to each flow cell, a competition run was performed during the same Biacore cycle. Flow cells were first saturated with EGFR ECD antigen followed by injection of different reference antibodies or Anti-EGFR antibodies into separate flow cells using the same antigen saturating conditions as outlined above. This step was immediately followed by a second injection of Anti-EGFR antibody over the flow cell saturated with EGFR antigen and competition antibody to minimize the dissociation of either antigen or blocking antibody. Then the antibody/antigen complexes were stripped off with a low pH acid wash (10 sec. contact time with 10 mM Glycine-HCl, pH 2) and the whole cycle beginning with the reference run was repeated with a new Anti-EGFR antibody. The degree of inhibition of tested Anti-EGFR antibodies were determined by comparing the Ru max value of the individual Anti-EGFR antibody before and after competition by introduction of report points recorded two seconds before and after injection of each sample.

[2] = molecular target: T2, wild type full length EGFR purified from A431 cells (human, UniProt P00533 25-1210); test: competition ELISA, competitor ICR10; set-up: concentration or dose not given beside the values
T2 construct: mature; Bought; coated on ELISA wells; also called full length EGFR receptor antigen; Sigma E3641
Protocol: (§1) The ELISA was adapted from the descriptions published in Ditzel et al, 1995, The Journal of Immunology, Vol 154, Issue 2 893-906.
(§2) An epitope blocking ELISA was performed by diluting full length EGFR receptor antigen to 0.5 μg/ml in PBS; and coating 50 μl/ELISA well overnight at 4° C. […] Finally wells were washed four times with PBS-T and plates were developed by adding 50 μl/well TMB and read at 620 nm every 5-15-30 min. The degree of inhibition was calculated from the formula: % inhibition=(1−(OD competition/OD no competition (PBS)))×100.

[3] = molecular target: T1, recombinant human EGFR extracellular …; test: SPR (BIAcore 2000); IgG captured on anti-human Fc, soluble monovalent EGFR ECD injected
Protocol: Kinetic analysis of the full length IgG antibodies of the invention was performed on a BIAcore 2000, employing an assay as described in (Canziani, Klakamp, et al. 2004, Anal. Biochem, 325:301-307) allowing measurement of monovalent affinities of whole IgG molecules against soluble antigen. […] The chip surface was regenerated in between cycles by stripping the captured antibody/antigen complexes with a 10 second injection of 100 mM H₃PO₄. […] The association rate constant (ka) and dissociation constant (kd) were evaluated globally from the generated sensograms with the BIA evaluation software 4.1 provided by the manufacturer.

[4] = molecular target: T2, wild type full length EGFR purified …; test: competition ELISA, competitor Ab-2; set-up: concentration or dose not given beside the values
Protocol: as §1, §2

[5] = molecular target: T2, wild type full length EGFR purified …; test: competition ELISA, competitor Ab-1; set-up: concentration or dose not given beside the values
Protocol: as §1, §2

[6] = molecular target: T3, EGFRvIII (deletion mutant EGFR) (human, UniProt P00533 25-645, limits assumed); test: EGFRvIII ELISA (Example 1)
T3 construct: also called deltaEGFR; rhEGFRvIII

[7] = molecular target: T2, wild type full length EGFR purified …; test: competition ELISA, competitor Ab-3; set-up: concentration or dose not given beside the values
Protocol: as §1, §2

[8] = molecular target: T2, wild type full length EGFR purified …; test: competition ELISA, competitor Ab-10; set-up: concentration or dose not given beside the values
Protocol: as §1, §2

[9] = molecular target: T4, Cynomolgus EGFR extracellular domain (Cynomolgus monkey (Macaca fascicularis), UniProt P55245 25-645 (rhesus entry)); test: ELISA on cynomolgus EGFR ECD (Example 10)
T4 construct: Cloned without signal peptide; also called Cynomolgus rEGFR ECD; Cynomolgus EGFR ECD
Summary of the method: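 Wells coated overnight at 4 °C with 1 μg/ml EGFR protein, then given serial four-fold antibody dilutions from 1 μg/ml for 1 h at room temperature. Binding detected with streptavidin-HRP and TMB, read at OD 450 nm.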

[10] = molecular target: T2, wild type full length EGFR purified …; test: competition ELISA, competitor Ab-5; set-up: concentration or dose not given beside the values
Protocol: as §1, §2

[11] = molecular target: T2, wild type full length EGFR purified …; test: competition ELISA, competitor Ab-11; set-up: concentration or dose not given beside the values
Protocol: as §1, §2

| % inhibition [1] [%] | % inhibition [2] [%] | Kd [3] [nM] | koff [3] [s⁻¹] | kon [3] [M⁻¹ s⁻¹] | t1/2 [3] [h] | % inhibition [4] [%] | % inhibition [5] [%] | binding result [6] | % inhibition [7] [%] | % inhibition [8] [%] | binding result [9] | % inhibition [10] [%] | % inhibition [11] [%] | Binder |
| --- | --- | --- | --- | --- | --- | --- | --- | --- | --- | --- | --- | --- | --- | --- |
| 31 | 90 | 4.2 | 0.00016 | 37000 | 1.23 | 8 | 12 | no binding | 12 | 24 | binds | 17 | 92 | antibody 1260 (antibody, human IgG1, kappa, V domains shown, Chimeric IgG1 kappa) VH: QVQLKESGPGLVAPSQSLSITCTVSGFSLTTYGVHWVRQPPGKGLEWLGVIWAGGSTNYNSALMSRLSIKKDNSKSQVFLKMNSLQTDDTAMYYCARAYGYNFDYWGQGTTLTVSS VL: DIQMTQTTSSLSASLGDRVTISCSASQGITNYLNWYQQKPDGTVKLLIYYSSSLHSGVPSRFSGSGSGTDYSLTISNLEPEDIATYYCQQYSEIPYTFGGGTKLELKR |
| -1 | 88 | 4.6 | 0.00015 | 32000 | 1.3 | 26 | 12 | no binding | 9 | 30 | binds | 31 | 52 | antibody 1284 (antibody, human IgG1, kappa, V domains shown, Chimeric IgG1 kappa) VH: QVQLQQPGAELVKPGASVKLSCKASGYTFTSDWMHWMKQRPGQGLEWIGEINPSNGRSSYNEKFKSKATLTVDKSSSTAYMQLSSLTSEDSAVYYCARIGGIYVETYWGQGTLVTVSS VL: DIVLTQSPASLAVSLGQRATISCRASQSVSTSTYSYMHWYQQKSGQPPKLLIKYASNLESGVPARFSGSGSGTDFTLNIHPVEEEDTATYYCQHSWEIPWTFGGGTKLEIKR |

Continued, binder first:

| Binder | % inhibition [1] [%] | % inhibition [2] [%] | Kd [3] [nM] | koff [3] [s⁻¹] | kon [3] [M⁻¹ s⁻¹] | t1/2 [3] [h] | % inhibition [4] [%] | % inhibition [5] [%] | binding result [6] | % inhibition [7] [%] | % inhibition [8] [%] | binding result [9] | % inhibition [10] [%] | % inhibition [11] [%] |
| --- | --- | --- | --- | --- | --- | --- | --- | --- | --- | --- | --- | --- | --- | --- |
| antibody 1261 (antibody, human IgG1, kappa, V domains shown, Chimeric IgG1 kappa) VH: EVQLVESGGGLVKPGGSLKLSCAVSGFTFSSYVMSWVRQTPEKRLEWVATITSGGRNIYYLDSVKGRFTISRDNAKNTLYLQMSSLRSEDTAMYYCARHEDYRYDGYYAMDYWGQGTSVTVSS VL: QIVLTQSPAIMSASPGEKVTITCSASSSVSYMHWFQQKPGTSPKLWIYSTSNLASGVPARFSGSGSGTSYSLTISRMEAEDAATYYCQQRSSYPYTFGGGTKLELKR | -18 | 57 | 18.6 | 0.0032 | 170000 | 0.06 | 6 | 3 | no binding | 30 | 13 | binds | 6 | 88 |
| antibody 1257 (antibody, human IgG1, kappa, V domains shown, Chimeric IgG1 kappa) VH: EVQLQQSGPELVKPGASVKIPCKTSGYTFTDYNMAWVKQSHGKSLEWIGDIIPNNGGAIYNQKFKGKATLTVDKSSSTASMELRSLTSEDTAVYFCARKNIYYRYDGAGALDYWGQGTSVTVSS VL: QIVLTQSPAIMSASPGEKVTMTCSASSSVSYIYWYQQKPGSSPRLLIYDASNLASGVPVRFSGSGSGTSYSLTISRMEAEDAATYYCQQWSSYPITFGSGTKLEIKR | 16 | 78 | – | – | – | – | 37 | 6 | no binding | 77 | 33 | binds | 25 | 92 |
